From PMC3581573

Target: Flag-HsPRMT5 (UniProt O14744)
Assay: biotinylated peptide pull-down on streptavidin beads
Settings: reference: unmodified H4 peptide; sites S1

binding against the reference: lost
Substance: histone H4 1-20 (from UniProt P62805) H4 S1ph peptide
